This is an account of results in publication PMC8157113.

The assay deals with Hepatitis B patients' plasma-derived HBsAg particles (HBV surface antigen, subviral particle of HBV). The experiment in a line: AlphaScreen. The settings on record: parent: est. 1.3; read off a plot.

Consider “Myr47 lipopeptide (HBV pre-S1 domain, myristoylated 2–48 peptide), biotinylated Ala11–15”, for which the response was 1.4 RLU (×10^6).
